{
  "source": "patent US6683059B1",
  "about": "“Mini-E1A gene and gene products” (priority 1996, dated 2004)",
  "test_system": "subclone of SKOV-3.ip1",
  "assay": "long-term survival study, E1A-Cterm lipid:DNA complex, aggressive SKOV-3.ip1 subclone in nude mice",
  "format": "in vivo, mouse",
  "procedure": "FIG. 9. Comparison of tumor suppressor activity of full-length E1A and mini-E1ACterm. Mice bearing tumors from an aggressive subclone of the SKOV-3.ip1 cell line were injected with the treatment compounds indicated. […] As also shown, while all nine control animals were dead by that time, none of the animals receiving full-length E1A or mini-E1ACterm had died. Mini-E1ACterm was equivalent to full-length E1A in tumor suppression.\nLong-term survival studies were performed using the E1A-Cterm mini-gene in a tumor engraftment model and DNA-lipid formulations as described above. In this study, it appears that the subclone of SKOV-3.ip1 used may have been even more aggressive in tumor formation than the SKOV-3.ip1 parent used to induce tumors in the nude mice since no control mice survived for more than about 35 days. The protocol was otherwise as in the long-term study above except that: (i) 10 mice were used in each group receiving E1A formulations and 9 mice were used in the control group; (ii) 5% dextrose was used for control injections; and (iii) a lipid:DNA ratio of 10:1 w as used for the treatment formulations however, as above, each injection contained 15 μg of DNA.",
  "data": [
    {"molecule": "mini-E1ACterm: mini-E1A construct in pcDNA1.1 encoding E1A 186-289; expected polypeptide about 80 amino acids, 209-289, SEQ ID NO:1 (nucleic acid, pcDNA1.1 vector) CCTGTGTCTGAACCTGAGCCTGAGCCCGAGCCAGAACCGGAGCCTGCAAGACCTACCCGCCGTCCTAAAATGGCGCCTGCTATCCTGAGACGCCCGACATCACCTGTGTCTAGAGAATGCAATAGTAGTACGGATAGCGTGGACTCCGGTCCTTCTAACACACCTCCTGAGAGACACCCGGTGGTCCCGCTGTGCCCCATTAAACCAGTTGCCGTGAGAGTTGGTGGGCGTCGCCAGGCTGTGGAATGTATCGAGGACTTGCTTAACGAGCCTGGGCAACCTTTGGACTTGAGCTGTAAACGCCCCAGGCCATAA", "values": [
      {"measurement": "animals alive when the last dextrose control mouse died", "setting": "about day 35, lipid:DNA 10:1, 15 μg DNA per injection, 10 mice per group", "result": 100, "unit": "%"},
      {"measurement": "tumor masses in surviving mice after 21 weeks", "setting": "visual inspection, the 4 surviving mice", "result": "no signs of such tumor masses"}
    ]}
  ]
}
